Sequences and labels used below:
T1: N-terminal GST-tagged HMGS with 1 C-terminal SH3 peptide ligand (Saccharomyces cerevisiae, UniProt P54839 1-491)
T1 construct: Bait of the GST pull-down; also called HMGS bait with 1 SH3 ligand; not shown: glutathione S-transferase (GST) tag at the N-terminus
T1 sequence: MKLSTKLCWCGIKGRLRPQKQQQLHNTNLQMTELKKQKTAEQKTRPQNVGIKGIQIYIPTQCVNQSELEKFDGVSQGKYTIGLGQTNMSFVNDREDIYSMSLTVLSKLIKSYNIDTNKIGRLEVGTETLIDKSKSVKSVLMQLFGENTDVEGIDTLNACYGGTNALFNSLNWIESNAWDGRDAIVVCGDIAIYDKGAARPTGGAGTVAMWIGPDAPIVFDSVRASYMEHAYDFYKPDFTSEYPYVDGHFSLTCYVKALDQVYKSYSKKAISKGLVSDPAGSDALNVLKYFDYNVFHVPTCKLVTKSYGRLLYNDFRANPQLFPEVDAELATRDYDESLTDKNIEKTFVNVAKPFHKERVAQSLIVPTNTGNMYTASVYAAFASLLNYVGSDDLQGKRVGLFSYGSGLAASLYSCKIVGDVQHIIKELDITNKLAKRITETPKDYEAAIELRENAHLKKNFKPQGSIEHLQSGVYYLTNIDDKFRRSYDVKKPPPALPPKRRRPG

T2: Syn PDZ (PDZ domain of mouse α-syntrophin, residues 77-171) (mouse, UniProt Q61234 77-171)
T2 construct: range 77-171; also called Mouse α-syntrophin (syn) PDZ domain
T2 sequence (looked up): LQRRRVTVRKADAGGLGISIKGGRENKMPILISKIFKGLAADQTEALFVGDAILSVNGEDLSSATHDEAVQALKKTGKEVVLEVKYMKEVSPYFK

B1: HMGR alone (enzyme, Saccharomyces cerevisiae, UniProt P12683 554-1054, looked up)
chain: VLTNKTVISGSKVKSLSSAQSSSSGPSSSSEEDDSRDIESLDKKIRPLEELEALLSSGNTKQLKNKEVAALVIHGKLPLYALEKKLGDTTRAVAVRRKALSILAEAPVLASDRLPYKNYDYDRVFGACCENVIGYMPLPVGVIGPLVIDGTSYHIPMATTEGCLVASAMRGCKAINAGGGATTVLTKDGMTRGPVVRFPTLKRSGACKIWLDSEEGQNAIKKAFNSTSRFARLQHIQTCLAGDLLFMRFRTTTGDAMGMNMISKGVEYSLKQMVEEYGWEDMEVVSVSGNYCTDKKPAAINWIEGRGKSVVAEATIPGDVVRKVLKSDVSALVELNIAKNLVGSAMAGSVGGFNAHAANLVTAVFLALGQDPAQNVESSNCITLMKEVDGDLRISVSMPSIEVGTIGGGTVLEPQGAMLDLLGVRGPHATAPGTNARQLARIVACAVLAGELSLCAALAAGHLVQSHMTHNRKPAEPTKPNNLDATDINRLKDGSVTCIKS
notes: Control prey of the GST pull-down; also called HMGR prey without an N-terminal SH3 domain
B2: N-terminal GST-tagged HMGS with 0 C-terminal SH3 peptide ligands (enzyme, UniProt P54839 1-491, looked up)
chain: MKLSTKLCWCGIKGRLRPQKQQQLHNTNLQMTELKKQKTAEQKTRPQNVGIKGIQIYIPTQCVNQSELEKFDGVSQGKYTIGLGQTNMSFVNDREDIYSMSLTVLSKLIKSYNIDTNKIGRLEVGTETLIDKSKSVKSVLMQLFGENTDVEGIDTLNACYGGTNALFNSLNWIESNAWDGRDAIVVCGDIAIYDKGAARPTGGAGTVAMWIGPDAPIVFDSVRASYMEHAYDFYKPDFTSEYPYVDGHFSLTCYVKALDQVYKSYSKKAISKGLVSDPAGSDALNVLKYFDYNVFHVPTCKLVTKSYGRLLYNDFRANPQLFPEVDAELATRDYDESLTDKNIEKTFVNVAKPFHKERVAQSLIVPTNTGNMYTASVYAAFASLLNYVGSDDLQGKRVGLFSYGSGLAASLYSCKIVGDVQHIIKELDITNKLAKRITETPKDYEAAIELRENAHLKKNFKPQGSIEHLQSGVYYLTNIDDKFRRSYDVKK
notes: Bait of the GST pull-down; also called HMGS bait with 0 SH3 ligands; not shown: glutathione S-transferase (GST) tag at the N-terminus

For test [1], the target named is T3, Crk SH3 (SH3 domain of mouse Crk, residues 134-191) (mouse, UniProt Q64010 134-191).
T3 construct: range 134-191; also called mouse Crk SH3 domain
T3 sequence (Q64010 134-191 limits assumed): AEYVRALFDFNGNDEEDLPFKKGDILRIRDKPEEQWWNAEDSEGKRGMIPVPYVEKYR
In words: method not described; footnote: affinities reported as measured in trans.

Test [2] addresses T1, N-terminal GST-tagged HMGS with 1 …. In words: GST pull-down, GST-HMGS as bait, HMGR as prey. The source says: (§1) As a direct test of engineered enzyme co-recruitment, the bottleneck enzymatic step of the mevalonate biosynthetic pathway (HMGR-catalyzed turnover of HMG-CoA to mevalonate) was targeted for flux improvement. A synthetic complex of HMGS and HMGR was created by recombining a varying number of SH3 (Src Homology 3 domain from the adapter protein CRK) interaction ligands to the C-terminus of HMGS and recombining an SH3 domain to the N-terminus of HMGR (FIG. 2a). This simple design also allowed for control over the relative ratio of these two enzymes at the resultant complex. The ability of these proteins to interact in an SH3-dependent manner was probed in a GST pull-down experiment (FIG. 2b). […] As prey, an SH3 domain was recombined to the N-terminus of HMGR and compared to HMGR alone. No significant interaction was observed between HMGS and HMGR without engineered SH3 interactions. However, HMGR with an N-terminal SH3 domain was pulled down by GST-tagged HMGS in a ligand-dependent manner. […] Thus, the relative stoichiometries of these two enzymes were controlled at the complex by varying the number of interaction ligands tethered to HMGS.

The target of test [3] is T4, HMGR with an N-terminal SH3 domain (mouse; Saccharomyces cerevisiae, UniProt Q64010 134-191; P12683 554-1054).
T4 construct: also called SH3 domain recombined to the N-terminus of HMGR; HMGR prey with an N-terminal SH3 domain
In words: GST pull-down, GST-HMGS as bait, HMGR as prey.
From the text: as §1

The test “HMGR alone” has as its target B1. In words: GST pull-down, GST-HMGS as bait, HMGR as prey.
From the text: as §1

The target of test [4] is T5, WASP GBD (GTPase Binding Domain of rat N-WASP, residues 196-274) (rat, UniProt O08816 196-274).
T5 construct: range 196-274; also called rat N-WASP GBD
T5 sequence (O08816 196-274 limits assumed): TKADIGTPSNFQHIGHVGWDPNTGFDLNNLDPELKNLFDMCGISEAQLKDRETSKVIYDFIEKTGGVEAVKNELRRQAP
In words: method not described; footnote: affinities reported as measured in trans.

Test [5] addresses T2, Syn PDZ (PDZ domain of mouse …). The test is described as above.

The values below come from patent US20110008829A1 (University of California, published 2011).

One may read the Kd as the constant that tells how readily two partners part at equilibrium. High values mean lower affinity, low ones higher affinity. PPPALPPKRRRPG (also called SH3 peptide ligand) [SH3 lig.] returned a Kd in test [1] of 0.1 µM.

As for B1, the binding result in test [2] is recorded as “no binding”.

In the case of B2, the binding result (in test [3]; with HMGR alone) was “no binding” in each case.

Molecule LVGALMHVMQKRSRAIHSSDEGEDQAGDEDED (also called GBD ligand) [GBD lig.] returned a Kd in test [4] of 1 µM.

In the case of GVKESLV (also called PDZ ligand; GVKESLV) [PDZ lig.], the Kd in test [5] stood at 8 µM.
